According to paper PMC3383732, “Impact of Large Aggregated Uricases and PEG Diol on Accelerated Blood Clearance of PEGylated Canine Uricase” (PLoS ONE, 2012):
“And” between values parts separate entries of the source, which are not always exact repeats. Identical values can stand only once.

Biological target: the molecule itself
Assay: SEC; SE-HPLC on Superdex 200 10/300 GL, 0.1 M Na2CO3 pH 10.3, 0.4 ml/min, detection at 280 nm; purified rCU after xanthine affinity chromatography and Source 15Q fractions

B1: recombinant canine uricase (enzyme, UniProt Q5FZI9 1-304, looked up)
chain: MAHYHNDYKKNDEVEFVRTGYGKDMVKVLHIQRDGKYHSIKEVATSVQLTLSSKKDYVYGDNSDIIPTDTIKNTVHVLAKFKGIKSIETFAMNICEHFLSSFNHVIRAQVYVEEVPWKRFEKNGVKHVHAFIHNPTGTHFCEVEQMRSGPPVIHSGIKDLKVLKTTQSGFEGFIKDQFTTLPEVKDRCFATKVYCKWRYHQGRDVDFEATWDTVRDIVLEKFAGPYDKGEYSPSVQKTLYDIQVHSLSRVPEMEDMEISLPNIHYFNIDMSKMGLINKEEVLLPLDNPYGRITGTAKRKLASKL
notes: Active form is a homo-tetramer; octamers and larger aggregates of the same chain were also seen and separated on Source 15Q; No tag is mentioned; Unmodified (not PEGylated) protein in the SE-HPLC analysis; also called rCU; wDU
For B1, the “stoichiometry N” value was 4 and 8.
